Measurements taken from patent US20210324099A1 (Chugai, published 2021).
Where a chain is given by its changes, count along the chain named. One block for each binder: values may come before it.

Key:
[1] = target: T1, hFcgRIIIaF (human, UniProt P08637 17-208); experiment: SPR 25C
T1 construct: extracellular domain; also called human FcγRIIIa allotype F158

[2] = target: T2, hFcgRIIaH (human, UniProt P12318 34-217); experiment: SPR 25C
T2 construct: extracellular domain; also called human FcγRIIa type H (H131)
T2 sequence (looked up): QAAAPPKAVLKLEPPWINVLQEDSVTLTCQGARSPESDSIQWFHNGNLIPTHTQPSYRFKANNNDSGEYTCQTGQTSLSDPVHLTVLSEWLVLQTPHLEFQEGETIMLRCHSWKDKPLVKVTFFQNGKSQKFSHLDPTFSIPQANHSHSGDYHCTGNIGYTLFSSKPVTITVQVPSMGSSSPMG

[3] = target: T3, hFcgRIa (human, UniProt P12314 16-292); experiment: SPR 25C
T3 construct: extracellular domain; also called human FcγRIa; FcγRI
T3 sequence (P12314 16-292): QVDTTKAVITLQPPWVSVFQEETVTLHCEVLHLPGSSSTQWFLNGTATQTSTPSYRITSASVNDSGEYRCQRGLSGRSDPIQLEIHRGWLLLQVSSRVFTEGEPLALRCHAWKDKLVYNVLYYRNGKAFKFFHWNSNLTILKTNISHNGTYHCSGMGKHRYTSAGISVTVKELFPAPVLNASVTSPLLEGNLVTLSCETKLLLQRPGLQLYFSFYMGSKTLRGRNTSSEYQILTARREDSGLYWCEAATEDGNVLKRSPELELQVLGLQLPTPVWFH

[4] = target: T4, hFcgRIIb (human, UniProt P31994 43-217); experiment: SPR 25C
T4 construct: extracellular domain; also called human FcγRIIb
T4 sequence (looked up): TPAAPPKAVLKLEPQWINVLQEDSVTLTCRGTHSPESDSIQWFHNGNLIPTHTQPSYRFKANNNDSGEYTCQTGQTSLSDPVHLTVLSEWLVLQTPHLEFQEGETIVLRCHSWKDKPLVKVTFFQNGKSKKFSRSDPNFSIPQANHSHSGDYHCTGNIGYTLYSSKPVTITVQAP

[5] = target: T5, hFcgRIIIaV (human, UniProt P08637 17-208); experiment: SPR 25C
T5 construct: extracellular domain; also called human FcγRIIIa allotype V158
T5 sequence (P08637 17-208 F176V): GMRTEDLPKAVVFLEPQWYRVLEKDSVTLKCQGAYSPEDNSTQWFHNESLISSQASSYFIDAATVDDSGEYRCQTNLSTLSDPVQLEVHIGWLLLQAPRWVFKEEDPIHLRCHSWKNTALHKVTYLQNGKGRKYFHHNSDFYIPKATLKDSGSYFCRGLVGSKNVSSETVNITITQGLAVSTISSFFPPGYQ

[6] = target: T6, hFcgRIIaR (human, UniProt P12318 34-217); experiment: SPR 25C
T6 construct: extracellular domain; also called human FcγRIIa type R (R131)
T6 sequence (looked up): T2 sequence (looked up) with H134R

[7] = target: T1, hFcgRIIIaF; experiment: SPR 25C; relative to A375-G1T3/B167-Lamlib;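 note: SPR with antibody captured on an anti-human Fab-lambda chip, human FcγR analyte at 8 nM for FcγRIa or 1000 nM for the others, pH 7.4, FcγR RU per captured antibody unit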
Method: (§1) Biacore T200 (GE Healthcare) was used to evaluate the binding activity to the respective human Fcγ receptor (hereafter referred to as FcγR). Measurement was performed at 25° C. using 50 mM phosphate, 150 mM NaCl, 0.05 w/v %-P20, pH 7.4 as buffer. About 1000 RU of antibody was captured using a sensor chip immobilized with CaptureSelect™ Human Fab-lambda Kinetics Biotin Conjugate (Thermo Fisher Scientific) as a molecule for ligand capturing. Human FcγR was diluted to 8 nM for FcγRIa and 1000 nM for other FcγR in the measurement buffer, and it was interacted to the captured antibody. The binding activity of each antibody to FcγR was assessed by calculating the binding amount of FcγR (RU) per unit amount of antibody using Biacore T200 Evaluation Software 2.0.

[8] = target: T2, hFcgRIIaH; experiment: SPR 25C; relative to A375-G1T3/B167-Lamlib;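 note: SPR with antibody captured on an anti-human Fab-lambda chip, human FcγR analyte at 8 nM for FcγRIa or 1000 nM for the others, pH 7.4, FcγR RU per captured antibody unit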
Method: as §1

[9] = target: T3, hFcgRIa; experiment: SPR 25C; relative to A375-G1T3/B167-Lamlib;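 note: SPR with antibody captured on an anti-human Fab-lambda chip, human FcγR analyte at 8 nM for FcγRIa or 1000 nM for the others, pH 7.4, FcγR RU per captured antibody unit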
Method: as §1

[10] = target: T4, hFcgRIIb; experiment: SPR 25C; relative to A375-G1T3/B167-Lamlib;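 note: SPR with antibody captured on an anti-human Fab-lambda chip, human FcγR analyte at 8 nM for FcγRIa or 1000 nM for the others, pH 7.4, FcγR RU per captured antibody unit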
Method: as §1

[11] = target: T5, hFcgRIIIaV; experiment: SPR 25C; relative to A375-G1T3/B167-Lamlib
Method: as §1

[12] = target: T6, hFcgRIIaR; experiment: SPR 25C; relative to A375-G1T3/B167-Lamlib
Method: as §1

[13] = target: human FcRn (human, UniProt P55899 24-290; P61769 21-119, limits assumed); experiment: SPR 25C pH 6.0, steady state;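 note: antibody captured on chip via anti-human Fab-lambda ligand, human FcRn injected as analyte in 50 mM phosphate buffer with 150 mM NaCl and P20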
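Throughout, for binding per 1RU of antibody: biacore SPR with antibody captured on an anti-human Fab lambda chip, human FcγR injected at 1000 nM (FcγRIa at 8 nM) in pH 7.4 phosphate buffer.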

T1 sequence (P08637 17-208): as the sequence (P08637 17-208 F176V) above, with V160F counted along it

B1: A375-SCF040/B167-Lamlib (antibody, human IgG1, lambda)
heavy: EVQLVESGGGLVKPGGSLRLSCAASGFTFSTFTMNWVRQAPGKGLEWVSSISSKSTYIEYADSFKVRFTISRDNAKNSLYLQMNSLRAEDTAVYYCARYGAKNFLNWVFDYWGQGTLVTVSSASTKGPSVFPLAPSSKSTSGGTAALGCLVKDYFPEPVTVSWNSGALTSGVHTFPAVLQSSGLYSLSSVVTVPSSSLGTQTYICNVNHKPSNTKVDKKVEPKSCDKTHTCPPCPAPELWNGPSVFLFPPKPKDTLMISRTPEVTCVVVDVSDEDPEVKFNWYVDGVEVHNAKTKPREELYNSTYRVVSVLTVLHQDWLNGKEYKCKVSNTALPKPIEKTISKAKGQPREPQVYTLPPSREEMTKNQVSLTCLVKGFYPSDIAVEWESNGQPENNYKTTPPVLDSDGSFFLYSKLTVKKSRWQQGNVFSCSVMHEALHNHYTQKSLSLSP
light: QSALTQPPSASGSPGQTVTISCTGTRYDVGYYEYVSWYQQHPGKAPKLMIYETSKRLSGVPDRFSGSKSGNTASLTVSGLQAEDEADYYCSSYRYEHQVSFGGGTKLTVLGQPKAAPSVTLFPPSSEELQANKATLVCLISDFYPGAVTVAWKADSSPVKAGVETTTPSKQSNNKYAASSYLSLTPEQWKSHRSYSCQVTHEGSTVEKTVAPTECS
notes: copies: 2 + 2
binding per 1RU of antibody [1]: 0.001 RU | binding per 1RU of antibody [2]: 0.0454 RU | binding per 1RU of antibody [3]: 0.0016 RU | binding per 1RU of antibody [4]: 0.0465 RU | binding per 1RU of antibody [5]: 0.0013 RU | binding per 1RU of antibody [6]: 0.0446 RU | relative binding amount [7]: 0.05 | relative binding amount [8]: 0.8 | relative binding amount [9]: 0.02 | relative binding amount [10]: 4.24 | relative binding amount [11]: 0.02 | relative binding amount [12]: 0.96 | Kd [13]: 1460 nM

B4: A375-SCF042a/B167-Lamlib (antibody, human IgG1, lambda)
heavy: B1 heavy with K219R, W240L, L300Q, T331K
light: B1 light
notes: copies: 2 + 2
binding per 1RU of antibody [1]: 0.0003 RU | binding per 1RU of antibody [2]: 0.0522 RU | binding per 1RU of antibody [3]: 0.0396 RU | binding per 1RU of antibody [4]: 0.0393 RU | binding per 1RU of antibody [5]: 0.0014 RU | binding per 1RU of antibody [6]: 0.0327 RU | relative binding amount [7]: 0.01 | relative binding amount [8]: 0.92 | relative binding amount [9]: 0.49 | relative binding amount [10]: 3.59 | relative binding amount [11]: 0.02 | relative binding amount [12]: 0.71 | Kd [13]: 1490 nM

B7: A375-SCF043a/B167-Lamlib (antibody, human IgG1, lambda)
heavy: B1 heavy with K219R, W240L, L300Q, T331K, P348R
light: B1 light
binding per 1RU of antibody [1]: 0.0011 RU | binding per 1RU of antibody [2]: 0.0552 RU | binding per 1RU of antibody [3]: 0.0429 RU | binding per 1RU of antibody [4]: 0.0419 RU | binding per 1RU of antibody [5]: 0.0025 RU | binding per 1RU of antibody [6]: 0.0361 RU | relative binding amount [7]: 0.05 | relative binding amount [8]: 0.97 | relative binding amount [9]: 0.53 | relative binding amount [10]: 3.82 | relative binding amount [11]: 0.04 | relative binding amount [12]: 0.78 | Kd [13]: 1180 nM

B8: A375-SCF043aPh/B167-Lamlib (antibody, human IgG1, lambda)
heavy: B1 heavy with K219R, L300Q, T331K, P348R
light: B1 light
binding per 1RU of antibody [1]: 0.0001 RU | binding per 1RU of antibody [2]: 0.0349 RU | binding per 1RU of antibody [3]: 0.0011 RU | binding per 1RU of antibody [4]: 0.0339 RU | binding per 1RU of antibody [5]: 0.0001 RU | binding per 1RU of antibody [6]: 0.0349 RU | relative binding amount [7]: 0 | relative binding amount [8]: 0.62 | relative binding amount [9]: 0.01 | relative binding amount [10]: 3.1 | relative binding amount [11]: 0 | relative binding amount [12]: 0.75 | Kd [13]: 1210 nM

B9: A375-SCF041aPh/B167-Lamlib (antibody, human IgG1, lambda)
heavy: B1 heavy with K219R, L300Q, T331K, P348R, K418D
light: B1 light
binding per 1RU of antibody [1]: 0.0007 RU | binding per 1RU of antibody [2]: 0.0371 RU | binding per 1RU of antibody [3]: 0.0013 RU | binding per 1RU of antibody [4]: 0.035 RU | binding per 1RU of antibody [5]: 0.0005 RU | binding per 1RU of antibody [6]: 0.0371 RU | relative binding amount [7]: 0.03 | relative binding amount [8]: 0.65 | relative binding amount [9]: 0.02 | relative binding amount [10]: 3.2 | relative binding amount [11]: 0.01 | relative binding amount [12]: 0.8 | Kd [13]: 1130 nM

More lines, in order of falling Kd [13], values ahead:

binding per 1RU of antibody [1]: 0.0009 RU | binding per 1RU of antibody [2]: 0.0571 RU | binding per 1RU of antibody [3]: 0.0446 RU | binding per 1RU of antibody [4]: 0.0433 RU | binding per 1RU of antibody [5]: 0.0022 RU | binding per 1RU of antibody [6]: 0.0376 RU | relative binding amount [7]: 0.04 | relative binding amount [8]: 1.01 | relative binding amount [9]: 0.55 | relative binding amount [10]: 3.95 | relative binding amount [11]: 0.03 | relative binding amount [12]: 0.81 | Kd [13]: 1100 nM
B5: A375-SCF041a/B167-Lamlib (antibody, human IgG1, lambda)
heavy: B1 heavy with K219R, W240L, L300Q, T331K, P348R, K418D
light: B1 light

binding per 1RU of antibody [1]: 0.001 RU | binding per 1RU of antibody [2]: 0.0502 RU | binding per 1RU of antibody [3]: 0.038 RU | binding per 1RU of antibody [4]: 0.0358 RU | binding per 1RU of antibody [5]: 0.0021 RU | binding per 1RU of antibody [6]: 0.0319 RU | relative binding amount [7]: 0.05 | relative binding amount [8]: 0.88 | relative binding amount [9]: 0.47 | relative binding amount [10]: 3.27 | relative binding amount [11]: 0.03 | relative binding amount [12]: 0.69 | Kd [13]: 1030 nM
B3: A375-SCF059a/B167-Lamlib (antibody, human IgG1, lambda)
heavy: B1 heavy with K219R, W240L, L300Q, Q316R, T331K
light: B1 light
notes: copies: 2 + 2

binding per 1RU of antibody [1]: 0.001 RU | binding per 1RU of antibody [2]: 0.0314 RU | binding per 1RU of antibody [3]: 0.0019 RU | binding per 1RU of antibody [4]: 0.0292 RU | binding per 1RU of antibody [5]: 0.001 RU | binding per 1RU of antibody [6]: 0.0299 RU | relative binding amount [7]: 0.05 | relative binding amount [8]: 0.55 | relative binding amount [9]: 0.02 | relative binding amount [10]: 2.67 | relative binding amount [11]: 0.01 | relative binding amount [12]: 0.64 | Kd [13]: 1000 nM
B2: A375-SCF056aPh/B167-Lamlib (antibody, human IgG1, lambda)
heavy: B1 heavy with K219R, L300Q, Q316R, T331K, K418D
light: B1 light
notes: copies: 2 + 2

binding per 1RU of antibody [1]: 0.0011 RU | binding per 1RU of antibody [2]: 0.0529 RU | binding per 1RU of antibody [3]: 0.0395 RU | binding per 1RU of antibody [4]: 0.0399 RU | binding per 1RU of antibody [5]: 0.0023 RU | binding per 1RU of antibody [6]: 0.0331 RU | relative binding amount [7]: 0.05 | relative binding amount [8]: 0.93 | relative binding amount [9]: 0.49 | relative binding amount [10]: 3.64 | relative binding amount [11]: 0.03 | relative binding amount [12]: 0.71 | Kd [13]: 956 nM
B6: A375-SCF056a/B167-Lamlib (antibody, human IgG1, lambda)
heavy: B1 heavy with K219R, W240L, L300Q, Q316R, T331K, K418D
light: B1 light
notes: copies: 2 + 2

binding per 1RU of antibody [1]: 0.0013 RU | binding per 1RU of antibody [2]: 0.0525 RU | binding per 1RU of antibody [3]: 0.0405 RU | binding per 1RU of antibody [4]: 0.0412 RU | binding per 1RU of antibody [5]: 0.0025 RU | binding per 1RU of antibody [6]: 0.0367 RU | relative binding amount [7]: 0.06 | relative binding amount [8]: 0.93 | relative binding amount [9]: 0.5 | relative binding amount [10]: 3.76 | relative binding amount [11]: 0.04 | relative binding amount [12]: 0.79 | Kd [13]: 928 nM
B11: A375-SCF057a/B167-Lamlib (antibody, human IgG1, lambda)
heavy: B1 heavy with K219R, W240L, L300Q, Q316R, T331K, P348R, K418D
light: B1 light

binding per 1RU of antibody [1]: -0.0003 RU | binding per 1RU of antibody [2]: 0.0365 RU | binding per 1RU of antibody [3]: 0.0021 RU | binding per 1RU of antibody [4]: 0.0345 RU | binding per 1RU of antibody [5]: 0.0005 RU | binding per 1RU of antibody [6]: 0.0364 RU | relative binding amount [7]: -0.02 | relative binding amount [8]: 0.64 | relative binding amount [9]: 0.03 | relative binding amount [10]: 3.15 | relative binding amount [11]: 0.01 | relative binding amount [12]: 0.79 | Kd [13]: 909 nM
B10: A375-SCF057aPh/B167-Lamlib (antibody, human IgG1, lambda)
heavy: B1 heavy with K219R, L300Q, Q316R, T331K, P348R, K418D
light: B1 light
